The values that follow come from patent publication US20250255972A1, “METHOD OF TREATING UVEITIS WITH MULTIVALENT PROTEIN-HYALURONIC ACID POLYMER CONJUGATE” (Valitor, Inc., priority 2022, published 2025).

Numbering of substitutions follows the chain as printed. “Also recorded” adds a separate entry of the source.

For data set [1], the system named is pro-inflammatory cytokines and inflammatory regulators in rat vitreous. Nature of the data set: Cytokine analysis of rat vitreous 14 days after uveitis induction (Milliplex bead panel). The data set is classed as in vivo, Male Lewis rats. The note with it: rat eyes 14 days after uveitis induction; ITV triamcinolone 40 μg or conjugate #10 19 μg. Here is the method: (§1) The efficacy of conjugate #10 was validated to provide a treatment effect that can sufficiently reduce the symptoms of uveitis. Male Lewis rats were divided into 4 groups (n=12 for EAU induced groups and n=8 for uninduced control) and randomized by weight. The groups received either conjugate #10 at 19 μg, triamcinolone (40 μg), or vehicle control. On Day 1, rats in the induced groups were immunized by a subcutaneous injection in each flank with 25 μg of interphotoreceptor retinoid-binding protein (IRBP) peptide R16 in 0.1 mL of complete Freund's adjuvant for 50 μg total. On days 4 and 8, rat eyes were treated bilaterally with a 5 μL intravitreal (ITV) injection of conjugate #10 or vehicle control, or 1 μL ITV injection of triamcinolone based on their assigned treatment. Prior to the start of the study and on days 3, 6, 10, 12 and 14, ocular inflammation was accessed by slit lamp microscopy and assigned a clinical EAU score of 0-4 based on the appearance of inflammation.
On day 14, animals were euthanized and one eye from each animal was dissected into vitreous and aqueous humor to perform for cytokine analysis. After dissection the aqueous humor from each group was pooled and all tissues were flash frozen. A milliplex Rat Cytokine/Chemokine magnetic bead panel (Millipore Cat #RECYMAG65K27PMX) was used to assess the relative cytokine concentrations in the tissues according to the manufacturer's protocol. Briefly, the ocular tissues were thawed on ice and the sample volume was measured. Then, assay buffer was added to the samples to achieve a final volume of 55 μL for duplicate readings and mixed well. Next, 25 μL of samples, standards or controls was added to the assay plate, mixed with 25 μL of beads and incubated at room temperature for 2 hours. The wells were washed on a magnetic plate washer and incubated with 25 μL of detection antibodies for one hour and then 25 μL of Streptavadin-Phycoerythrin for 30 minutes. Wells were washed on a magnetic plate washer and 125 μL of Sheath Fluid Plus was added per well and then read on the Luminex. The amount of cytokine recovered from each sample was normalized to the volume of tissue recovered and plotted.

The test system of data set [2] is experimental autoimmune uveoretinitis (EAU) in rats. The data set is described as follows: Second rat EAU model, clinical score by slit lamp, Example 9. It counts as in vivo, Male Lewis rats. The note with it: FIG. 7A, ITV, triamcinolone (40 μg) or conjugate #10 (19 μg), one day after ITV treatment, vs vehicle. How it is done:
as §1

In data set [3] the target is T1, Human TNFα (Homo sapiens, UniProt P01375).
T1 construct: Avi; His; purchased Acro Biosystems TNA-H82E3
T1 sequence (P01375 77-233 limits assumed): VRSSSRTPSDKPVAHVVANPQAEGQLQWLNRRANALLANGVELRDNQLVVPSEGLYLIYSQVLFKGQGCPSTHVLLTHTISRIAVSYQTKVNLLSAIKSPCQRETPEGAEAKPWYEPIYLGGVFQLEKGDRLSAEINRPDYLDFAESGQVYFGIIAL
Nature of the data set: Biolayer interferometry (BLI) binding kinetics, Human TNFα ligand. The note with it: purified conjugate.

Data set [4] has as its system TNFα. The data set is described as follows: Long-term 37° C. stability, change in Kon by BLI. The data set is classed as physicochemical. The note with it: FIG. 4B. Here is the method: (§2) We then used the top performers from the thermal stability experiments in a long-term 37° C. stability studies. The MVPs were synthesized under sterile conditions and diluted to around 0.4 mg/mL in a sterile filtered human vitreous mimetic buffer (see Table 10) or remained in formulation buffer. The samples were either filtered using sterile 0.2 or 5 μm spin filters before use or mixed with 0.010% sodium azide as an anti-microbial agent. Then, several 100-150 μL aliquots of each sample were added to wells of a sterile 96 well plate with one day 0 aliquot reserved at 4° C. The remaining wells were filled with a sterile filtered human vitreous buffer+0.01% sodium azide to minimize evaporation. The plate was incubated in a standard tissue culture incubator at 37° C. with 5% CO2. At discrete timepoints, one aliquot from each sample was removed from the plate under sterile conditions and analyzed. […] Then, the protein concentration was measured to adjust for any differences in volume that may have occurred. […] To monitor changes in radius over time, the samples were spun for 5 minutes at 5000 g to remove any large aggregates or dust particles and the Rh was measured using DLS methods described above except that the instrument is at 37° C. and without any sample dilution.

Data set [5] concerns the target T2, Human TNFα, Avi and His tagged (Acro Biosystems TNA-H82E3) (human, UniProt P01375 77-233).
T2 construct: Bought BLI ligand, loaded on streptavidin probes through the Avi tag; also called BLI ligand
Nature of the data set: BLI (Gator), Avi-tagged TNFα on streptavidin probes, conjugate as analyte, 1:1 global fit.

The test system of data set [6] is experimental autoimmune uveoretinitis (EAU) in rats. Nature of the data set: Rat experimental autoimmune uveoretinitis (EAU) model, Example 8. The data set is classed as in vivo, Male Lewis rats. The note with it: vs vehicle. How it is done: The efficacy of mu_anti-TNFα_aH_CYS MVPs were validated to provide a treatment effect that can sufficiently reduce the symptoms of uveitis. A rat model of experimental autoimmune uveoretinitis (EAU) was used as a model of chronic posterior uveitis in humans. This model was induced by systemic immunization with the uveitogenic interphotoreceptor retinoid-binding protein (IRBP), and symptoms of uveitis appeared after 9-11 days. Rats were treated intravitreally with 12.5 μg of mu_anti-TNFα_aH_CYS MVP (Conjugate #7). As a positive control, dexamethasone was used.
Male Lewis rats were divided into 4 groups (n=8) and randomized by weight. […] On Day 1, rats were immunized by a subcutaneous injection at the base of the tail and in each thigh with 30 μg of bovine IRBP peptide R16 in 0.2 mL of Freund's adjuvant. On days 8 and 10, rat eyes were treated bilaterally with a 5 μL ITV injection of either dose of their assigned treatment. Prior to the start of the study and on days 7, 9, 11, 14, we assessed ocular inflammation by slit lamp microscopy and assigned a clinical EAU score of 0-4 based on the appearance of inflammation. On day 14, animals were euthanized, one eye from each animal was processed for histopathology, and assigned a score of 0-4 based on the appearance of inflammation and cell infiltration. EAU and histopathology were scored based on published standardized scoring systems.

Data set [7] is described as follows: Long-term 37° C. stability in vitreous mimetic buffer, radius by DLS. The data set is classed as physicochemical. The note with it: FIG. 4C; after 35 days at 37° C. in vitreous mimetic buffer. How it is done:
as §2

A short description of data set [8]: Hydrodynamic radius by dynamic light scattering (DLS). The data set is classed as physicochemical. The note with it: 25° C.

T2 sequence (P01375 77-233 limits assumed): as above

As to `C[C@]12C=CC(=O)C=C1CC[C@H]1[C@@H]3C[C@@H](O)[C@](O)(C(=O)CO)[C@@]3(C)C[C@H](O)[C@@]12F` [Triamcinolone, triamcinolone, reference compound], in data set [1], the “IFNγ concentration in the vitreous ± SD” value worked out at 2.540 ± 1.804 ng/mL, the “IL-1α concentration in the vitreous ± SD” value is 1.321 ± 0.844 ng/mL, the “IL-1β concentration in the vitreous ± SD” value is reported as 0.721 ± 0.445 ng/mL and the “IL-6 concentration in the vitreous ± SD” value worked out at 19.936 ± 17.156 ng/mL. In addition, in data set [1], the “MCP-1 concentration in the vitreous ± SD” value stood at 2.705 ± 2.640 ng/mL and the “TNFα concentration in the vitreous ± SD” value was determined as 0.046 ± 0.051 ng/mL. The “Average inflammation score (clinical EAU score, 0=none to 4=severe)” value in data set [2] is on record as “decreased inflammation compared to the vehicle control”.

B1: Conjugate #5: (SEQ ID NO:103, anti-TNFα VHH (mouse)-aH)+HyA (850 kDa) conjugate, MP2H linker, valency 121 (conjugate)
VHH: QVQLQDSGGGLVQAGGSLRLSCAASGGTFSSIIMAWFRQAPGKEREFVGAVSWSGGTTVYADSVLGRFEISRDSARKSVYLQMNSLKFPEDTAVYYCAARPYQKYNWASASYNVWGQGTQVTVSSAEAAAKEAAAKEAAAKAGC
modifications: hyaluronic acid 850 kDa conjugate via MP2H linker; anti-TNFalpha VHH (mouse)- aH
For the molecule B1, the Kd in data set [3] is at most 0.001 nM. In data set [4] (after 5 days at 37° C.), the “change in association constant of TNFα binding” value is on record as “dramatically decreased”.

B2: (SEQ ID NO:149)+HyA conjugate #12, valency 99 (other)
VHH: QVQLVESGGGLVQPGGSLRLSCAASGGTFSSIIMAWFRQAPGKEREFVGAVSWSGGTTVYADSVKGRFTISRDNSKNTVYLQMNSLRPEDTAVYYCAARPYQKYNWASASYNVWGQGTLVTVSSAEAAAKEAAAKEAAAKAGC
modifications: C-terminal cysteine thiol of the aH peptide linker joined through the MP2H organic linker to hyaluronic acid
Consider B2, for which the Kd in data set [5] was at most 1 pM.

B3: Conjugate #7: (SEQ ID NO:104, anti-TNFα 3MUT VHH (mouse)-aH)+HyA (850 kDa) conjugate, MP2H linker, valency 98 (conjugate)
VHH: B2 VHH with V5Q, P14A, N74S, S75A, K76R, N77K, T78S, R87K, L119Q
modifications: hyaluronic acid 850 kDa conjugate via MP2H linker; anti-TNFalpha 3MUT VHH (mouse)- aH
B3 returned a dissociation constant (Kd) in data set [3] of at most 0.001 nM. Moreover, the “Average inflammation score (0=none to 4=severe)” value in data set [6] (FIG. 6A, rat EAU, ITV, or Conjugate #7 (12.5 μg), n=8, one day after ITV treatment) is on record as “decreased inflammation compared to the vehicle control”. For the same molecule, the “Average histology inflammation score (0=none to 4=severe)” value in data set [6] (FIG. 6B, rats sacrificed 14 days after model induction, p<0.05) is “less inflamed than vehicle treated eyes”. Besides, the “conjugate size (DLS) as share of the original radius” value in data set [7] is given as “about 75%”. Besides, the “Rh (nm, DLS)” value in data set [8] turned out to be 76.42 nm.

B4: Conjugate #13: (SEQ ID NO:150, Hu aTNFα 5MUT aH_CYS)+hyaluronic acid conjugate, MP2H linker, valency 102 (conjugate)
VHH: B2 VHH with G49A, V51I
modifications: hyaluronic acid conjugate, MP2H linker; Hu_aTNFaMu_5MUT aH_CYS
Consider B4, for which the “Rh (nm, DLS)” value in data set [8] is reported as 71.64 nm.

B5: Conjugate #10: (SEQ ID NO:104, anti-TNFα 3MUT VHH (mouse)-aH)+HyA (850 kDa) conjugate, MP2H linker, valency 96.5 (conjugate)
VHH: B2 VHH with V5Q, P14A, N74S, S75A, K76R, N77K, T78S, R87K, L119Q
modifications: hyaluronic acid 850 kDa conjugate, MP2H linker; anti-TNFalpha 3MUT VHH (mouse)- aH
In turn, B5 had a Kd in data set [3] of at most 0.001 nM. In addition, in data set [1], the “IFNγ concentration in the vitreous ± SD” value was 3.116 ± 1.436 ng/mL, the “IL-1α concentration in the vitreous ± SD” value was found to be 1.511 ± 0.709 ng/mL, the “IL-1β concentration in the vitreous ± SD” value amounted to 0.667 ± 0.271 ng/mL and the “IL-6 concentration in the vitreous ± SD” value is 25.565 ± 15.702 ng/mL. For the same molecule, in data set [1], the “MCP-1 concentration in the vitreous ± SD” value was 3.843 ± 2.499 ng/mL and the “TNFα concentration in the vitreous ± SD” value was 0.058 ± 0.038 ng/mL. In addition, the “Average inflammation score (clinical EAU score, 0=none to 4=severe)” value in data set [2] was “comparable to triamcinolone; also recorded: decreased inflammation compared to the vehicle control”. Moreover, the “Rh (nm, DLS)” value in data set [8] came out at 99.14 nm.

B6: Conjugate #12: (SEQ ID NO:149, Hu aTNFα 3MUT aH_CYS)+hyaluronic acid conjugate, MP2H linker, valency 99 (conjugate)
VHH: B2 VHH
modifications: hyaluronic acid conjugate, MP2H linker; Hu_aTNFaMu_3MUT aH_CYS
B6: the “Rh (nm, DLS)” value in data set [8] was 70.12 nm.

B7: Conjugate #6: (SEQ ID NO:104, anti-TNFα 3MUT VHH (mouse)-aH)+HyA (850 kDa) conjugate, MP2H linker, valency 51 (conjugate)
VHH: B2 VHH with V5Q, P14A, N74S, S75A, K76R, N77K, T78S, R87K, L119Q
modifications: hyaluronic acid 850 kDa conjugate via MP2H linker; anti-TNFalpha 3MUT VHH (mouse)- aH
Turning to B7, in data set [3], the dissociation constant (Kd) was at most 0.001 nM. Moreover, the “change in association constant of TNFα binding” value in data set [4] (after 35 days at 37° C.) is on record as “minimal change”. The “conjugate size (DLS) as share of the original radius” value in data set [7] is reported as “about 75%”. Further, in data set [8], the “Rh (nm, DLS)” value is reported as 76.8 nm.

B8: (SEQ ID NO:150)+HyA conjugate #13, valency 102 (other)
VHH: B2 VHH with G49A, V51I
modifications: C-terminal cysteine thiol of the aH peptide linker joined through the MP2H organic linker to hyaluronic acid
notes: also called Conjugate ID 13
B8: the Kd in data set [5] was at most 1 pM.
